In US20170342167A1 (Hoffmann-La Roche, published 2017):
Changes are numbered by the printed parent chain. Names may count otherwise.

B1: IgG1 Fc-region with L234A/L235A/P329G and H310A/H433A/Y436A in both Fc-region polypeptides (other)
chain: DKTHTCPPCPAPEAAGGPSVFLFPPKPKDTLMISRTPEVTCVVVDVSHEDPEVKFNWYVDGVEVHNAKTKPREEQYNSTYRVVSVLTVLAQDWLNGKEYKCKVSNKALGAPIEKTISKAKGQPREPQVYTLPPSRDELTKNQVSLTCLVKGFYPSDIAVEWESNGQPENNYKTTPPVLDSDGSFFLYSKLTVDKSRWQQGNVFSCSVMHEALANHATQKSLSLSPGK
notes: As m2; Positions are EU numbers, not positions on the entry; also called HHY-AAA mutation
B2: IgG1 Fc-region with L234A/L235A/P329G and I253A/H435A in both Fc-region polypeptides (other)
chain: B1 chain with I33A, A90H, A213H, H215A, A216Y
notes: As m2; Positions are EU numbers, not positions on the entry
B3: IgG1 Fc-region with L234A/L235A/P329G and H310A/Y436A in both Fc-region polypeptides (other)
chain: B1 chain with A213H
notes: as for B2
B4: IgG1 Fc-region with L234A/L235A/P329G and I253A/H310A/H435A in both Fc-region polypeptides (other)
chain: B1 chain with I33A, A213H, H215A, A216Y
notes: As m2; Positions are EU numbers, not positions on the entry; also called IHH-AAA mutation
B5: IgG1 Fc-region with L234A/L235A/P329G and I253A/H310A in both Fc-region polypeptides (other)
chain: B1 chain with I33A, A213H, A216Y
notes: as for B2
B6: IgG1 Fc-region with L234A/L235A/P329G and H310A/H435A in both Fc-region polypeptides (other)
chain: B1 chain with A213H, H215A, A216Y
notes: as for B2

Molecular target: T1, human neonatal Fc-receptor (FcRn) (human, UniProt P55899 24-297; P61769 21-119, limits assumed, biotinylated (site not stated), coupled to streptavidin sepharose)
T1 construct: also called FcRn receptor
Assay: FcRn affinity chromatography

| Molecule | binding result |
| --- | --- |
| B1 | no binding (tested: retention time below 3 minutes) |
| B2 | no binding (tested: retention time below 3 minutes) |
| B3 | no binding (tested: retention time below 3 minutes) |
| B4 | no binding (tested: retention time below 3 minutes) |
| B5 | no binding (tested: retention time below 3 minutes) |
| B6 | no binding (tested: retention time below 3 minutes) |

Molecular target: T1, human neonatal Fc-receptor (FcRn)
Assay: FcRn affinity chromatography, anti-HER2 antibody

| retention time [min] | Molecule |
| --- | --- |
| 45.6 | anti-HER2 antibody symmetrically modified with E258H |
| 46.4 | anti-HER2 antibody symmetrically modified with E430H |
| 45.2 | anti-HER2 antibody symmetrically modified with K288E |
| 46.2 | anti-HER2 antibody symmetrically modified with K290H |
| 46.3 | anti-HER2 antibody symmetrically modified with K317H |
| 45.5 | anti-HER2 antibody symmetrically modified with L309H |
| 52 | anti-HER2 antibody symmetrically modified with N434H |
| 46.3 | anti-HER2 antibody symmetrically modified with Q311H |
| 41.4 | anti-HER2 antibody symmetrically modified with R255D |
| 46 | anti-HER2 antibody symmetrically modified with T256H |
| 46.3 | anti-HER2 antibody, wild-type |
